Assays:
[1] = target: T1, human PD-L1 on CHO cells (human, UniProt Q9NZQ7 19-290); assay: flow cytometry, Flp-In-CHO::huPD-L1 cells
T1 construct: whole, on cells; Stably transfected CHO cells; also called Flp-In-CHO::huPD-L1; human PD-L1-expressing CHO cells

[2] = target: T2, human 4-1BB on cells (human, UniProt Q07011 24-255); assay: flow cytometry, Flp-In-CHO::hu4-1BB cells
T2 construct: whole, on cells; Stably transfected CHO cells (flow cytometry) and bought Jurkat reporter cells (bioassay); also called Flp-In-CHO::hu4-1BB; human 4-1BB-expressing CHO cells
Procedure: 5×10⁴ cells per well were incubated for 1 h in ice-cold PBS containing 5% fetal calf serum (PBS-FCS). A dilution series of the tested multimeric proteins (SEQ ID NOs: 38-44 and 46-55), the 4-1BB-targeting lipocalin mutein as included in the multimeric proteins (SEQ ID NO: 64) or the GPC3-targeting lipocalin SEQ ID NO: 90 were added to the cells and incubated for 1 h on ice. Cells were washed twice with PBS and then incubated with a rabbit anti-NGAL or a goat anti-human IgG labeled with fluorescent dye Alexa 488 for 30 min on ice. Human IgG4 isotype (SEQ ID NOs: 29 and 30) and lipocalin mutein SEQ ID NO: 8 were tested as a negative control. Cells were subsequently washed and analyzed using iQue Flow cytometer (Intellicyte Screener). Mean geometric fluorescent signals were plotted and fitted with Graphpad software using nonlinear regression (shared bottom, four parameters, variable slope).
Target-specific binding of hexavalent trimeric proteins to human 4-1BB-, OX40- or PD-L1-expressing cells was assessed by flow cytometry as described in Example 5, using CHO cells stably transfected with human 4-1BB, human OX40 or human PD-L1 (Flp-In system; Life Technologies).

[3] = target: T3, hu4-1BB-Fc (R&D Systems) (human, UniProt Q07011 24-186); assay: SPR, hu4-1BB-Fc captured
T3 construct: Bought; also called human 4-1BB; not shown: human IgG Fc of the bought fusion

T2 sequence (Q07011 24-255): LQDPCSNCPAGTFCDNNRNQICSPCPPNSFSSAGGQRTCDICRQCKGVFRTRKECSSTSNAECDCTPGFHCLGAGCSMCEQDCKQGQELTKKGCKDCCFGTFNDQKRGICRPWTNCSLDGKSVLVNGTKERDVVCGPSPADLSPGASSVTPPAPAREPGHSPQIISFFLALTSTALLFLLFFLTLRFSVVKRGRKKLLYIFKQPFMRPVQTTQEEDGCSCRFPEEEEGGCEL
T1 sequence (Q9NZQ7 19-290): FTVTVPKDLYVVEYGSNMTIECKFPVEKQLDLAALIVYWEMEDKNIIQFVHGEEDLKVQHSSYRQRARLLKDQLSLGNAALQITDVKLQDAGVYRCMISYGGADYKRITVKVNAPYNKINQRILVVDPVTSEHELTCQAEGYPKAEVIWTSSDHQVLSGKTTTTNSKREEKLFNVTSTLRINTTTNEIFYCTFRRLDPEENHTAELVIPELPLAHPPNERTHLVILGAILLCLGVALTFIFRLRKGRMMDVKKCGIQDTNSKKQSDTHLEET

B1: bispecific hexavalent trimeric protein SEQ ID NO: 167 (designed binder)
chain: QVQLQESGPGLVKPSETLSITCTVSGFSLSNYDISWIRQPPGKGLEWLGVIWTGGATNYNPALKSRLTISRDNSKNQVSLKMSSVTAADTAVYYCVRDSNYRYDEPFTYWGQGTLVTVSSGGGGSGGGGSGGGGSGGGGSEIVLTQSPDTLSVTPKEKVTLTCRASQSIGTNIHWFQQKPGQSPKLLIKYASESISGVPSRFSGSGSGTDFTLTINSVEAEDAATYYCQQSNSWPYTFGQGTKLEIKGGGGSGGGGSGGGGSGVRLWATRQAMLGQVHEVPEGWLIFVAEQEELYVRVQNGFRKVQLEARTPLGGGGSGGGGSGGGGSQDSTSDLIPAPPLSKVPLQQNFQDNQFHGKWYVVGQAGNIRLREDKDPIKMMATIYELKEDKSYDVTMVKFDDKKCMYDIWTFVPGSQPGEFTLGKIKSFPGHTSSLVRVVSTNYNQHAMVFFKFVFQNREEFYITLYGRTKELTSELKENFIRFSKSLGLPENHIVFPVPIDQCIDGGGSGGAPEQKLISEEDLGSHHHHHHHHHH
Binder B1 has an EC50 [1] of 1.23 nM and an EC50 [2] of 4.71 nM.

B2: multimeric protein SEQ ID NO: 45 (designed binder)
chain: GVRLWATRQAMLGQVHEVPEGWLIFVAEQEELYVRVQNGFRKVQLEARTPLGGGGSGGGGSGGGGSGGGGSGGGGSQDSTSDLIPAPPLSKVPLQQNFQDNQFHGKWYVVGQAGNIRLREDKDPIKMMATIYELKEDKSYDVTMVKFDDKKCMYDIWTFVPGSQPGEFTLGKIKSFPGHTSSLVRVVSTNYNQHAMVFFKFVFQNREEFYITLYGRTKELTSELKENFIRFSKSLGLPENHIVFPVPIDQCIDGGGSGGAPEQKLISEEDLGSHHHHHHHHHH
B2: binds [3].

Reference: patent publication US20230227568A1 (Pieris, published 2023)
